Assay results: the supplement of paper PMC12636428

Tested on: Saccharomyces cerevisiae
Assay: transcriptional activation domain activity (GFP:mCherry ratio, weighted mean of sorted bins, harmonized to initial dataset scale) (arbitrary fluorescence ratio units); higher = stronger transcriptional activation
Settings: beta-estradiol 1 µM; induction time 4 h
In short: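 In diploid yeast carrying a GFP reporter, barcoded protein tiles fused to an estradiol-inducible synthetic transcription factor were integrated at the URA3 locus. Cultures diluted 1:5 into SC with 1 uM beta-estradiol were kept at 30 °C for 4 hours, then sorted by GFP:mCherry ratio into 8 bins before barcode sequencing. Tiles with under 50 reads were excluded. The activation activity reported here is the read-weighted mean of bin median fluorescence, averaged across barcodes and linearly rescaled to the initial dataset.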

Row | Sequence | transcriptional activation domain activity
1 | VTSAKPVQNAGKSRPTSPKPKNVEEREEEKPEVKPVAASPVKATPAPTAAAPV | 29000
2 | EPAETPAETPAPVEPVVEEKKEETPAPVKETPAPTPNPAAAPAPQQQQPAAAK | 26400
3 | MRFLLTIIHFFLTLFLSYTLFLSVILLFSRLYYFLSIIRSSYAIIWIFFLFIL | 52000
4 | HPNDAGDENDGEGESAAPAKEKEPAGTAATPASYQLQSIACHKGTSIHAGHYV | 33100
5 | MISPFHFQSLFFILFLLFFLCAWCSGWAGLRFFTPHLVSIFFLFMDWQLDLVG | 48500
6 | FALMLREPAIQDVMSLLITTMSKFMDWFDFLDLIVTYPEFPDPKWLTTLFLIL | 23900
7 | FFELLGLFVFFVLFLVGAAIASTFWGDLFWCHSFWQCRVLTVLVAFAWMCWVL | 46900
8 | MVMYHWGMRCVFLYTNYIIFGFGFVFSFLFSFFFFFFPFTCIFFFLFYLIFIF | 58900
9 | IPGPILLCSLTALSCLTLFTLLVSIYWSVSSVCHLIFLTILWILRCLVTLLRF | 34600
10 | INSTVHNLCELVLLPELFGFCCFSMRFFVFIDLVGTLILPATVVYLFYLIIVV | 39400
11 | MNPHFLLPSIVSFQFSCFFGCLVVYLSVFFSRFIFILTFPSIYFSSTVFFFVS | 37100
12 | SHQVLSCLAIFVFPRLAFITLSDNLLILSLRSMMSDFVFLMLLGAWCFLGFLY | 55200
13 | RKKRERRERLKRGKKGGKKGDEDGAGDGEKGKGGKVKARVVIREDAEGLGGEG | 30900
14 | CFKLSLVALWPFGKSIDWNLRSAGCLSTVFNVIWLVLLGWHLCLIHLGLMLLF | 43600
15 | GVFCLALWVPATGFELVSFFALLVGAIFGVFWMVAGLKNLQSSLSISWLVIAL | 65200
16 | MNLVSLAAVCLFYFFSPTLFFVPSLCSHGHLFTYGHFLLLLCSLILPWTCFRL | 72000
17 | DRMRENGLLSLSDLREYFVCWWRFEKMYRTLIIAETWMDLQAYKVKTLAWLHG | 63200
18 | MLYINHFLHSPRGLVEQAKSLFFLYLSFFFLFFFFPFISFHFSFNVPFSLNCI | 50900
19 | VPSSIPRARRLQTAMVAIWSTSIVTTFALTLFLCSFPPLWPFMLMYVIWLNYI | 49000
20 | VVEALRLPLKPIQLLSKLFLRRLYEQDQLEEIRGIAKQIKIELYLLVALNVLL | 54000
21 | EFYLQIPFRVCMGNGRRRDRVLRDMRRAKRYSDAIEAMKRIVWPIVSFRLLLP | 63600

Row | Sequence | transcriptional activation domain activity
22 | FCQISGFSLAVGIESSDIAVLLIALHSVMYIFSPLSGLYPYRQLAYLVYYLFP | 49400
23 | MRRFSLFFSLSSLCLWLYVCWIGWIDGFLLVDVMVHLQHVYCVLTILIFLFSL | 22300
24 | EQYKLVCEALHERATFLEIAPYLAHQLPIMLPLYKWWQLPYYWAGCKVYDLLA | 43400
25 | IVMGKGTVHLCYLILSFFMYLLYSLLSHTQNILLDPLHTLFVSTFCLLHHSVF | 56200
26 | MADVSSARINIDRAKQGRGLGRVATAGCSRDRILLIRSSHSVWRAACHLWAVP | 60500
27 | MPEETVTEPRKKRAKIMSACSECRRKKTKCNGEQPCRNCQKSSVQCVYPAATQ | 36500
28 | VEAPAEEQAEAPKTKRGRKAAEPAPVEPKEAEAPEPAAKPKRGRKAVSEEPME | 42100
29 | SRKESRKEKSESKPVKAGKKEGKEKGKGKEGKEGKADGEKAAKPKKEKKEKKE | 17700
30 | TGGLPELREHLDDGRASYAYARVTYSNDKESQREKFVLVVWIGPACKVMRKAK | 25700
31 | KLIFIFFFFYFFSFFVLLLLLLFLLLLFLPLLMATSACMLGLMFDKLPFFSNI | 46300
32 | ATADRDGEREAQEVVATTVVHCHGLFGKTYISIIRAFHVLIVKHSLARLPKKI | 60700
33 | VIYSHRYVFHKKKGLRHIHVLNGWYVLSRIIAVYVLQDFLGEGSSVVVIAFLR | 58700
34 | NGPGTCVVLVLITYIRRMLGLRYSQVIYVESFARVKKLSLSGKLLKPFVDKFV | 54600
35 | LNMLGLALAASGHFPYAVKYDGAIVVANFNMAILMRNEVFGRLLYLLVNTLFA | 71600
36 | IVITCLPVTLLLFGKMVDVLDDYYLGIFELVLLFFAFYIFPIFYIFARVILLV | 53800
37 | MQVSNLLLLVLNLCCVVFLLINLDLHSCFFKLILFIFTSCLFNHPLPFQFIFT | 51700
38 | SLLLNDFSELRNGYFTSLFSLSLFLFLFAMPWTLTDITPFLMVLLFYHILFFI | 69600
39 | WLSHSQKKHCELCKTPFRFTKLYAPNMPKALPTHVFLSHVAKYILRNLLVWLR | 81200
40 | NSGDEGDAGAAEVEAPKSKKKRGRAAKEEDDDEETPAPVPKKARGRAKKATKE | 23700
41 | ADIHDVVYYGTFTGIFPKLHWWIQKTLHLLKPFGLLSSRQVLVHFMLFHAEQR | 83800
42 | EARRSTREREREEGKSSGGGKGRRGRSGKPRGGGRGAGASGANPGPGAAAGAE | 29100

Row | Sequence | transcriptional activation domain activity
43 | MPMDILVFYIPHRIKFCFFFFYLFIFFIFLPSYLIFYCTVTSAFLLFLYLYYL | 26000
44 | IINHLIILYLNRHICVMGLLHVPTFLEYYNSLDDPLNDAMVLAVCIDALVNLR | 42700
45 | IQVRLTAFDCLFVLKGLTESTLTQYFLSVIRDDPCVYVSHYVARAMLAWLGLA | 55600
46 | MEFSFTMVGIFYFLYSLAWSFSFLFFISYDHSLAGLVTIVKAFLISYYFFIFL | 26200
47 | MLHSLYVVAISKSGILSSFVNPTTTTVHYTPFEISMIGYFNLVLIWLKLLILW | 61300
48 | GSSAEGEGDKEKTAVKRKRDSQVTGQQQQQQQQRADSSNRATSRKRRKTNKEG | 60100
49 | MLLNVFFFFPSSILGSFLYTDLFYFGFFSLIMLFPFKLPCIQPTFFFFTPSFI | 44500
50 | QPQSPYQQAVLPYATIPNSNFQPSSFPVMAVMPPEVQFDGSFLNTLHPHTELP | 34400
51 | LSPHLPPHLPPRLYFAIDSDLFLLLLLPPFDICFYLSSLLVLIFFIYLLLEVH | 30600
52 | VFWRSLFNRVFDFGFDLVLFVFFSLALSLYFVVSHSKSLPFWFMCFFFIPLFN | 78000
53 | PLYPTTRCIFFFYRFLLYVVHLNMSLLMHSFFFVLLQACRGWMSLFLLLSLLF | 47900
54 | MQMIFFLSLTFLILLFFFFFFFSSFPFPFTIITFYISNPLFYFVTLLVSITYF | 19100
55 | SGDADEDGNGHGTHCSGTIAGKKYGVAKKAHVYAVKVLRSNGSGSMSDVVKGV | 9640
56 | CQWWKYLMERLLLLPPLVRVQIILLLFAFVIPKLHLHAHTLACQLVFSLNFLL | 51200
57 | MSTPKVVASATRQINAVVVSAGLMQKTVKARVGVQKWNRHIKKHFNRSTNVLV | 53100
58 | EVMKIHPVQKQTRAGQRTRFKAYVVVGDSNGHVGLGVKCSKEVATAIRSAIIL | 38700
59 | MNPTPAVFALFFPVIFCVYICYAWFLLFFVFWEPFFFLHIFLYRIILLSIWNL | 29900
60 | GDADEDGNGHGTHCSGTVAGKKYGVAKKANVYAVKVLRSNGSGSMSDVVKGVE | 30300
61 | AAGAAAPAKAAPAGARKARKGAAAAAPAAAPAAGAAPAQGAAAKKGGRLGGAA | 30000
